The source of these data is US20240082389A1.

The assay has as its target ALFA nanobody (ALFANb) fused to the N-terminus of PTGFRN, displayed on the exterior surface of exosomes (UniProt Q9P2B2). The assay is described as follows: IL-12 ELISA of loaded EVs. A general note: ELISA stands for enzyme-linked immunosorbent assay.

For the substance “mouse IL-12 fused to ALFAtag peptide (ligand)”, the fold more IL-12 loaded per EV than on control EVs with IL-12 genetically fused to PTGFRN is 290 fold.
